Laboratory results reported in the RNAGym collection of RNA variant scans (doi:10.1093/nar/gkz1192).

B1: CPEB3 Ribozyme (parent)
chain: UAACAGGGGGCCACAGCAGAAGCGUUCACGUCGCAGCCCCUGUCAGAUUCUGGUGAAUCUGCGAAUUCUGCUGUAUAUCUC

Variants of: B1
Assay: self-cleavage, relative activity (ratio to wild type); higher = more cleavage; in vitro, sequencing
Method in brief: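 CPEB3 self-cleaving ribozyme mutant libraries were made by rounds of error-prone PCR, barcoded, and transcribed in vitro with T7 RNA polymerase for 5 hours at 37°C. Cleavage occurred during transcription and a 15 min DNase I step before EDTA stop. RNAs were reverse transcribed with template switching and Illumina-sequenced, with DNA sequencing mapping barcodes to variants. Relative activity is the variant's cleaved/total read fraction divided by wild type's (minimum 5 reads), averaged across three batches.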

Point of comparison: G63U A64U, self-cleavage 0.43. Against it:
- C62A U66A — higher, 0.48
- C62A U66C — lower, 0.25
- C62A U67A — lower, 0.32
- C62A U69A — lower, 0.31
- C62A U69C — lower, 0.34
- C62A U69G — lower, 0.33
- C62A U72A — lower, 0.17
- C62A U72C — lower, 0.24
- C62A U72G — lower, 0.19
- C62A U74A — lower, 0.18
- C62A U74C — lower, 0.4
- C62A U76C — lower, 0.17
- C62A U78A — lower, 0.16
- C62A U78C — lower, 0.16
- C62A U80A — lower, 0.1
- C62A U80C — lower, 0.34
- C62G — lower, 0.3
- C62G A64C — lower, 0.19
- C62G A64G — lower, 0.22
- C62G A64U — lower, 0.32
- C62G A65U — lower, 0.27
- C62G A77U — lower, 0.19
- C62G C71U — lower, 0.38
- C62G C79A — lower, 0.24
- C62G U69A — lower, 0.15
- C62G U69C — lower, 0.22
- C62G U72A — lower, 0.27
- C62G U72C — lower, 0.26
- C62G U76C — lower, 0.29
- C62G U80A — lower, 0.25
- C62U — lower, 0.2
- C62U A64G — lower, 0.19
- C62U A64U — lower, 0.29
- C62U A65G — lower, 0.27
- C62U A65U — lower, 0.14
- C62U A75C — higher, 0.44
- C62U A75G — lower, 0.22
- C62U A77C — lower, 0.19
- C62U A77G — lower, 0.15
- C62U A77U — lower, 0.17
- C62U C68U — lower, 0.21
- C62U C71A — lower, 0.26
- C62U C71U — lower, 0.22
- C62U C79G — lower, 0.2
- C62U G73A — lower, 0.16
- C62U G73U — lower, 0.21
- C62U U66A — lower, 0.18
- C62U U66C — lower, 0.26
- C62U U67A — lower, 0.29
- C62U U67C — lower, 0.31
- C62U U69A — lower, 0.38
- C62U U69C — lower, 0.32
- C62U U72A — lower, 0.4
- C62U U72C — lower, 0.29
- C62U U72G — lower, 0.29
- C62U U74A — lower, 0.32
- C62U U74G — lower, 0.19
- C62U U76A — lower, 0.25
- C62U U76C — lower, 0.33
- C62U U78A — lower, 0.28
- C62U U78C — lower, 0.2
- C62U U80A — lower, 0.3
- C62U U80C — lower, 0.28
- G63A — higher, 0.87
- G63A A64C — lower, 0.42
- G63A A64G — higher, 0.6
- G63A A64U — higher, 0.54
- G63A A65G — lower, 0.38
- G63A A75G — higher, 0.49
- G63A A75U — higher, 0.84
- G63A A77G — higher, 0.74
- G63A A77U — higher, 0.99
- G63A C68U — higher, 0.96
- G63A C81U — higher, 1.07
- G63A G73A — higher, 1.34
- G63A U66A — lower, 0.4
- G63A U66C — higher, 0.45
- G63A U67A — lower, 0.31
- G63A U67C — lower, 0.3
- G63A U69A — higher, 0.5
- G63A U69C — higher, 0.61
- G63A U72A — higher, 0.59
- G63A U72C — higher, 0.91
- G63A U72G — higher, 0.84
- G63A U74A — lower, 0.33
- G63A U74C — higher, 1.21
- G63A U76A — higher, 0.82
- G63A U78A — higher, 0.93
- G63A U78C — higher, 0.82
- G63A U80A — higher, 0.97
- G63A U80C — higher, 0.93
- G63C — higher, 0.92
- G63C C79A — higher, 1.09
- G63C U66C — lower, 0.37
- G63C U67A — lower, 0.25
- G63C U67C — lower, 0.31
- G63C U72A — lower, 0.4
- G63C U72C — higher, 1.14
- G63C U74C — higher, 1.21
- G63C U76C — higher, 1.03
- G63C U78A — higher, 1.01
- G63U — higher, 1.09
- G63U A64G — higher, 0.79
- G63U A65G — higher, 0.5
- G63U A65U — higher, 0.51
- G63U A75G — higher, 1.14
- G63U A75U — higher, 1.2
- G63U A77G — higher, 1.24
- G63U C79U — higher, 1.09
- G63U C81U — higher, 0.99
- G63U G70A — higher, 0.62
- G63U U66C — lower, 0.42
- G63U U67A — higher, 0.58
- G63U U67C — lower, 0.29
- G63U U69A — higher, 0.57
- G63U U72C — higher, 1.2
- G63U U74A — higher, 1.29
- G63U U74C — higher, 1.19
- G63U U74G — higher, 1.21
- G63U U76A — higher, 1.23
- G63U U76C — higher, 1.12
- G63U U76G — higher, 1.17
- G63U U78A — higher, 0.98
- G63U U78C — higher, 0.96
- G63U U80A — higher, 0.98
- G63U U80C — higher, 1.11
- A64C — lower, 0.29
- A64C A65G — lower, 0.16
- A64C A65U — lower, 0.09
- A64C A77G — lower, 0.17
- A64C A77U — lower, 0.25
- A64C C81U — the same, 0.43
- A64C G70A — lower, 0.33
- A64C U66C — lower, 0.24
- A64C U67A — lower, 0.19
- A64C U67C — lower, 0.2
- A64C U69C — lower, 0.4
- A64C U69G — higher, 0.47
- A64C U72A — lower, 0.27
- A64C U72C — higher, 0.48
- A64C U74C — higher, 0.44
- A64C U78C — lower, 0.28
- A64C U80C — lower, 0.38
- A64G — higher, 0.93
- A64G A65C — lower, 0.31
- A64G A65G — lower, 0.28
- A64G A65U — lower, 0.19
- A64G A75C — higher, 1.06
- A64G A75G — higher, 0.71
- A64G A75U — higher, 1.01
- A64G A77G — higher, 0.84
- A64G A77U — higher, 1.03
- A64G C68A — lower, 0.2
- A64G C71G — lower, 0.31
- A64G C71U — lower, 0.34
- A64G C79A — higher, 0.84
- A64G C79U — higher, 1.1
- A64G C81A — higher, 1.02
- A64G C81G — higher, 1.03
- A64G C81U — higher, 0.91
- A64G G70A — lower, 0.37
- A64G G70C — lower, 0.21
- A64G G70U — lower, 0.29
- A64G G73A — higher, 1.24
- A64G G73U — higher, 1.35
- A64G U66A — lower, 0.32
